Experiments:
GST-Mdm2 = target: T1, GST-Mdm2 (Homo sapiens, UniProt Q00987); test: In vitro ubiquitination of GST-Mdm2 (self-ubiquitination); format: biochemical; details: bacculovirus-purified p19ARF added to GST-Mdm2
T1 construct: made in house
Description: GST-Mdm2 was subjected to an in vitro ubiquitination reaction using purified forms of E1, E2 and Ub-HA in the presence of ATP. […] Glutathione bead-coupled GST-Mdm2 in its ubiquitinated or non-ubiquitinated forms was washed and analyzed on immunoblots using antibodies to HA (upper panel). Middle panel depicts the level of Mdm2 expression and the lower panel, the level of p19^ARF added to the reaction.

p53 = p53 ubiquitination and p53 level in EJ cells; format: cell-based, mouse
Description: FIG. 14A-14E. A. In vitro ubiquitination of Mdm2 is inhibited by p19^ARF. GST-Mdm2 was subjected to an in vitro ubiquitination reaction using purified forms of E1, E2 and Ub-HA in the presence of ATP. Addition of bacculovirus-purified p19^ARF at the indicated concentrations blocked Mdm2 ubiquitination. Glutathione bead-coupled GST-Mdm2 in its ubiquitinated or non-ubiquitinated forms was washed and analyzed on immunoblots using antibodies to HA (upper panel). Middle panel depicts the level of Mdm2 expression and the lower panel, the level of p19^ARF added to the reaction. B. p19^ARF expression increases Mdm2 self-ubiquitination in EJ cells. EJ cells were transfected with the indicated plasmids. Cells were harvested 36 h later and proteins ([…]) were immunoprecipitated using Mdm2 antibodies (2A10). Immunoprecipitated material was washed and proteins loaded onto 10% SDS-PAGE, followed by immunoblot analysis with HA-antibodies to detect covalent HA-ubiquitin conjugation to Mdm2 (upper panel). Middle panel depicts level of immunoprecipitated Mdm2. Lower panel represents western analysis of p19^ARF expression levels. C. In vitro ubiquitination of Mdm2 in the presence of p19^ARF and protein extracts. […] The level of p53 immunoprecipitated was monitored in immunoblots using polyclonal antibodies to p53 (middle). […]

Ubc9 binding to Mdm2 = target: T2, Ubc9 binding to Mdm2 (Homo sapiens, UniProt Q00987); test: In vitro binding of Ubc9 to GST-Mdm2; details: in vitro translated p19ARF and Ubc9, GST-Mdm2 1 μg
T2 construct: made in house; host or cells: GST-Mdm2: bacteria; Ubc9: in vitro translation
T2 sequence (Q00987 whole entry): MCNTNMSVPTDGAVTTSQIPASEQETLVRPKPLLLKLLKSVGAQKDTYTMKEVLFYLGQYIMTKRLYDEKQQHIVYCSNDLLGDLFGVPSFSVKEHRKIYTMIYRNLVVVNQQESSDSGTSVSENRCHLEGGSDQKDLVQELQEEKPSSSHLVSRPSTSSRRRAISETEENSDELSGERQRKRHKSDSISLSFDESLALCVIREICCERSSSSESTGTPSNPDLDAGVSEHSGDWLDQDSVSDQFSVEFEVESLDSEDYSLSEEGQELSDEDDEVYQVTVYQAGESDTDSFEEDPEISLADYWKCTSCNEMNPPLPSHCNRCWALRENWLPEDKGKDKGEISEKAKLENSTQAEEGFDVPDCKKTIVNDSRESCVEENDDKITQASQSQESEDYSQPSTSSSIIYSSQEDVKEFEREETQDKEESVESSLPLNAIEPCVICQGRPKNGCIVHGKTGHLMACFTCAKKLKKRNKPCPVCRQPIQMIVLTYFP
Experimental: FIGS. 17A and 17B. A. p19^ARF decreases Ubc9 binding to Mdm2. Bacterially expressed and purified GST-Mdm2 (1 μg) was incubated with ^35S-labeled in vitro translated p19^ARF and Ubc9 at the indicated ratios. After 30 min of incubation GSH beads bound-GST-Mdm2 were washed and separated on a 12% SDS-PAGE. Gel was dried and subjected to autoradiograph, depicting relative amounts of Ubc9 and p19^ARF bound to Mdm2. B. Bacterially expressed and purified GST-Mdm2 (1 μg) was phosphorylated by purified form of active p38 kinase as indicated. Phosphorylated or un-phosphorylated Mdm2 was incubated for 30 min with in vitro translated UbcH5b and Ubc9 (25 μl). Beads were washed and separated on a 12% SDS-PAGE. Gel was dried and exposed to X-ray film. Position of Ubc9 and UbcH5b is shown.
A prerequisite for Mdm2 sumoylation is the association of Ubc9, the SUMO conjugating enzyme, with Mdm2, which enables subsequent conjugation of SUMO-1 to Mdm2. Inhibition of Ubc9's association with Mdm2 attenuates Mdm2 sumoylation. Given the effect of p19^ARF on Mdm2 sumoylation, we proceeded to determine whether p19^ARF may alter Ubc9 binding to Mdm2. To this end we performed an in vitro binding assay, using in vitro translated p19^ARF and Ubc-9, as indicated. […] We next assessed possible changes in Ubc9 binding to Mdm2 upon its phosphorylation by p38.

Mdm2 = Mdm2 (Homo sapiens, UniProt Q00987); test: Co-immunoprecipitation of p19ARF forms with Mdm2; format: cell-based; design: expressed in transfected cells; host or cells: 293T; details: forced expression of Mdm2 and wt or Δ62 p19ARF
Mdm2, sequence (Q00987 whole entry): as above

T1 sequence (Q00987 whole entry): as above

B1: p19^ARF: Mdm2-regulating protein; in vitro translated, bacculovirus-expressed or transfected (protein)
chain: MGRRFLVTVRIQRAGRPLQERVFLVKFVRSRRPRTASCALAFVNMLLRLERILRRGPHRNPGPGDDDGQRSRSSSSAQLRCRFELRGPHYLLPPGARRSAGRLPGHAGGAARVRGSAGCARCLGSPAARLGPRAGTSRHRAIFAFRWVLFVFRWVVFVYRWERRPDRRA
In the case of B1, the “Mdm2 ubiquitination in vitro” value (GST-Mdm2) is reported as “efficient inhibition of Mdm2 ubiquitination in vitro”, the “levels of p53” value (p53) is reported as “elevated levels of p53” and the “degree of p53 ubiquitination” value (p53; Flag-Mdm2, wt p53, HA-Ub, p19ARF constructs 1 μg each) is reported as “noticeable decrease in the degree of p53 ubiquitination”. For the same molecule, the “Ubc9 binding to Mdm2 in presence of increasing amounts of p19ARF” value (Ubc9 binding to Mdm2) was “dose dependent decrease in Ubc9 binding to Mdm2” and the “complex of p19ARF form with Mdm2” value (Mdm2) was “only the wt form in complex with Mdm2”.
